According to US6926883B1, “Group (VII) transition-metal complexes with multidentate aminopolycarboxylate ligands and a kit for producing them” (Mallinckrodt Inc, priority 1999, dated 2005):
One block for each compound: values may come before it.

What was measured:
[1] = tested on: CA20948 rat pancreatic tumor implants; experiment: in vivo; set-up: species or system Lewis rats
Protocol: (§1) These studies were performed to evaluate the biodistribution and imaging potential of these compounds in Lewis rats bearing CA20948 rat pancreatic tumor implants. For each study, six (6) male Lewis rats bearing CA20948 tumor implants were anesthetized with Metofane gas and injected via the jugular vein with 200 μL (using the compounds of Example 2) or 50 μL (using the compound of Example 3) of test article containing ˜50 μCi of activity. The animals were imaged for 100K counts under a gamma camera at 30 minute (n=3) and 4 hours (n=3) post injection after which time they were sacrificed and the following tissues removed for assay: blood, liver, kidneys, muscle, spleen, pancreas, small intestines, adrenals and tumor. The data are presented as % injected dose per gram and % injected dose per whole organ. The comparative data are also represented graphically.

in vivo [2] = experiment: in vivo; set-up: species or system Lewis rats; conditions: male, Lewis, rat, iv, 50 uCi, total radioactivity
Protocol: as §1

[3] = set-up: species or system Lewis rats; conditions: rat, in vivo
Protocol: During the general biodistribution studies, one additional animal per study was ligated to prevent urination prior to injection. The animal was kept anesthetized for 3 hours post injection, and was subsequently sacrificed, urine removed. The volume and activity of the urine was measured, and a sample was analyzed by HPLC using the method described above.

SST-2 Receptors = biological target: T1, SST-2 Receptors (Rattus norvegicus, UniProt P30680); experiment: in vivo; format: in vivo, Lewis rats; conditions: 350 μg cold Y3-Octreotate 30 minutes prior; three hours post injection
T1 construct: from tissue; host or cells: Lewis rats bearing CA20948 tumor implants
Protocol: (§2) Two rats for each group were used. Group 1 received 500 μL PBS administered subcutaneously in the nape of the neck 30 minutes prior to the injection of [^99mTc(CO)3(DTPA′-Y^3-Octreotate)]. Group 2 received 350 μg Y^3-Octreotate in 500 μL phosphate buffered saline (PBS) administered subcutaneously in the nape of the neck 30 minutes prior to the injection of [^99mTc(CO)3(DTPA′-Y^3-Octreotate)].
(§3) 30 minutes after injection of the cold peptide or saline control, the animals were anesthetized with Metofane gas and injected with 50 μL (50 μCi) of [^99mTc(CO)3(DTPA′-Y^3-Octreotate)]. At three hours post injection the animals were sacrificed, blood samples taken, and then the rats were scintigraphed for 100K counts (FIG. 3). At the conclusion of the scintigraphy, the animals were necropsied, and the following tissues removed for radioassay: liver, kidneys, muscle, spleen, heart, pancreas, adrenals, and tumor. The data were calculated as % injected dose per gram and % injected dose per whole organ.

in vivo [4] = format: in vivo, Lewis rats; conditions: Lewis, rat, in vivo, total radioactivity
Protocol: as §2, §3

T1 sequence (P30680 whole entry): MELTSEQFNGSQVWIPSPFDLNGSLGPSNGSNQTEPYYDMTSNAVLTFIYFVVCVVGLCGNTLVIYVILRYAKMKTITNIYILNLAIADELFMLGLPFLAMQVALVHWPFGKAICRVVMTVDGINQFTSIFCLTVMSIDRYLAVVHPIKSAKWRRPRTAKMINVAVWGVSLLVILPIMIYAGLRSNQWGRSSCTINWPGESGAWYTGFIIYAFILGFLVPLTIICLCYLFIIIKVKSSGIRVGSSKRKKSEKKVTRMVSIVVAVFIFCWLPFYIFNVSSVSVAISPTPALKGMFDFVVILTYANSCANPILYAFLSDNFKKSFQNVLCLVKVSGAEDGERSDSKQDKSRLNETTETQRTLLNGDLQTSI

Compound: Tc-99m(CO)3-iso-DTPA-Tyr-3-Octreotate [MP-2423]
Tumor/Liver [1]: 3

Compound: C[C@@H](O)[C@H](NC(=O)[C@@H]1CSSC[C@H](NC(=O)[C@@H](Cc2ccccc2)NC(=O)CN(CCN(CCN(CC(=O)O)CC(=O)O)CC(=O)O)CC(=O)O)C(=O)N[C@@H](Cc2ccc(O)cc2)C(=O)N[C@H](Cc2c[nH]c3ccccc23)C(=O)N[C@@H](CCCCN)C(=O)N[C@@H]([C@@H](C)O)C(=O)N1)C(=O)O [MP-2138, Tc-99m(CO)3-n-DTPA-Tyr-3-Octreotate, metal not drawn]
tissue uptake at 0.5 h (in vivo [2]; Blood % ID/g): 0.735 ± 0.027 %ID/g | tissue uptake at 4 h (in vivo [2]; Blood % ID/g): 0.218 ± 0.01 %ID/g | tissue uptake at 0.5 h (in vivo [2]; Kidney % ID/g): 5.282 ± 0.014 %ID/g | tissue uptake at 4 h (in vivo [2]; Kidney % ID/g): 5.703 ± 0.052 %ID/g | tissue uptake at 0.5 h (in vivo [2]; Liver % ID/g): 0.567 ± 0.015 %ID/g | tissue uptake at 4 h (in vivo [2]; Liver % ID/g): 0.516 ± 0.034 %ID/g | tissue uptake at 0.5 h (in vivo [2]; Pancreas % ID/g): 1.56 ± 0.11 %ID/g | tissue uptake at 4 h (in vivo [2]; Pancreas % ID/g): 1.76 ± 0.089 %ID/g | tissue uptake at 0.5 h (in vivo [2]; Tumor % ID/g): 0.847 ± 0.078 %ID/g | tissue uptake at 4 h (in vivo [2]; Tumor % ID/g): 0.822 ± 0.13 %ID/g | tissue to tissue ratio at 0.5 h (in vivo [2]; Tumor/Blood): 1.1 | tissue to tissue ratio at 4 h (in vivo [2]; Tumor/Blood): 3.7 | tissue to tissue ratio at 0.5 h (in vivo [2]; Tumor/Kidney): 0.14 | tissue to tissue ratio at 4 h (in vivo [2]; Tumor/Kidney): 0.14 | tissue to tissue ratio at 0.5 h (in vivo [2]; Tumor/Liver): 1.3 | tissue to tissue ratio at 4 h (in vivo [2]; Tumor/Liver): 1.6

Compound: Tc-99m(CO)3-His-Tyr-3-Octreotate [MP-2377, reference compound]
Activity of Urine [3]: 5.8 μCi | Metabolism: state of compound in urine by HPLC analysis [3]: essentially intact | Volume of Urine [3]: 1.5 mL | Blood (% ID/g at 4 hours p.i.) [1]: 0.03 % ID/g | Kidney (% ID/g at 4 hours p.i.) [1]: 1.64 % ID/g | Liver (% ID/g at 4 hours p.i.) [1]: 0.28 % ID/g | Pancreas (% ID/g at 4 hours p.i.) [1]: 2.67 % ID/g | Tumor (% ID/g at 4 hours p.i.) [1]: 1.00 % ID/g

Reduction of uptake in the adrenals in somatostatin receptor-blocked animals (SST-2 Receptors): 81% | Reduction of uptake in the pancreas in somatostatin receptor-blocked animals (SST-2 Receptors): 95% | Reduction of uptake in the tumor in somatostatin receptor-blocked animals (SST-2 Receptors): 90%
Compound: C[C@@H](O)[C@H](NC(=O)[C@@H]1CSSC[C@H](NC(=O)[C@@H](Cc2ccccc2)NC(=O)CC(C(=O)O)N(CCN(CC(=O)O)CC(=O)O)CCN(CC(=O)O)CC(=O)O)C(=O)N[C@@H](Cc2ccc(O)cc2)C(=O)N[C@H](Cc2c[nH]c3ccccc23)C(=O)N[C@@H](CCCCN)C(=O)N[C@@H]([C@@H](C)O)C(=O)N1)C(=O)O (stereo partly drawn) [MP-2148, Tc-99m(CO)3-DTPA′-Tyr-3-Octreotate, metal not drawn]
Activity of Urine [3]: 10.4 μCi | Metabolism: state of compound in urine by HPLC analysis [3]: essentially intact | Volume of Urine [3]: 1.5 mL | tissue uptake dose at 3 h (in vivo [4]; 50 uCi, Adrenals % ID/organ): 0.042 %ID | tissue uptake at 3 h (in vivo [4]; 50 uCi, Blood % ID/g): 0.115 %ID/g | tissue uptake dose at 3 h (in vivo [4]; 50 uCi, Blood % ID/organ): 1.44 %ID | tissue uptake at 3 h (in vivo [4]; 50 uCi, Heart % ID/g): 0.062 %ID/g | tissue uptake dose at 3 h (in vivo [4]; 50 uCi, Heart % ID/organ): 0.049 %ID | tissue uptake at 3 h (in vivo [4]; 50 uCi, Kidneys % ID/g): 2.98 %ID/g | tissue uptake dose at 3 h (in vivo [4]; 50 uCi, Kidneys % ID/organ): 6.82 %ID | tissue uptake at 3 h (in vivo [4]; 50 uCi, Liver % ID/g): 0.236 %ID/g | tissue uptake dose at 3 h (in vivo [4]; 50 uCi, Liver % ID/organ): 2.35 %ID | tissue uptake at 3 h (in vivo [4]; 50 uCi, Muscle % ID/g): 0.058 %ID/g | tissue uptake dose at 3 h (in vivo [4]; 50 uCi, Muscle % ID/organ): 6.6 %ID | tissue uptake at 3 h (in vivo [4]; 50 uCi, Pancreas % ID/g): 0.916 %ID/g | tissue uptake dose at 3 h (in vivo [4]; 50 uCi, Pancreas % ID/organ): 0.762 %ID | tissue uptake at 3 h (in vivo [4]; 50 uCi, Spleen % ID/g): 0.081 %ID/g | tissue uptake dose at 3 h (in vivo [4]; 50 uCi, Spleen % ID/organ): 0.044 %ID | tissue uptake at 3 h (in vivo [4]; 50 uCi, Tumor % ID/g): 1.11 %ID/g | tissue uptake dose at 3 h (in vivo [4]; 50 uCi, Tumor % ID/organ): 5.18 %ID | tissue uptake dose at 3 h (in vivo [4]; Adrenals % ID/organ): 0.008 %ID | tissue uptake dose at 3 h (in vivo [4]; Blood % ID/organ): 1.59 %ID | tissue uptake dose at 3 h (in vivo [4]; Heart % ID/organ): 0.057 %ID | tissue uptake dose at 3 h (in vivo [4]; Kidneys % ID/organ): 6.24 %ID | tissue uptake dose at 3 h (in vivo [4]; Liver % ID/organ): 2.61 %ID | tissue uptake dose at 3 h (in vivo [4]; Muscle % ID/organ): 6.93 %ID | tissue uptake dose at 3 h (in vivo [4]; Pancreas % ID/organ): 0.052 %ID | tissue uptake dose at 3 h (in vivo [4]; Spleen % ID/organ): 0.042 %ID | tissue uptake dose at 3 h (in vivo [4]; Tumor % ID/organ): 0.493 %ID | Amount of activity in the liver and GI tract compared to [99mTc(CO)3(His-Y3-Octreotate)] [1]: significantly less | Biodistribution characteristics vs iso-DTPA-Y3-Octreotate and n-DTPA-Y3-Octreotate [1]: better biodistribution characteristics | Hepatobiliary uptake and clearance compared to [99mTc(CO)3(His-Y3-Octreotate)] [1]: less hepatobiliary uptake and clearance | tissue uptake at 0.5 h (in vivo [2]; Blood % ID/g): 0.471 ± 0.035 %ID/g | tissue uptake at 4 h (in vivo [2]; Blood % ID/g): 0.114 ± 0.005 %ID/g | tissue uptake at 4 h (in vivo [2]; Blood (% ID/g at 4 hours p.i.)): 0.083 %ID/g | tissue uptake at 0.5 h (in vivo [2]; Kidney % ID/g): 2.14 ± 0.12 %ID/g | tissue uptake at 4 h (in vivo [2]; Kidney % ID/g): 3.14 ± 0.08 %ID/g | tissue uptake at 4 h (in vivo [2]; Kidney (% ID/g at 4 hours p.i.)): 3.27 %ID/g | tissue uptake at 0.5 h (in vivo [2]; Liver % ID/g): 0.494 ± 0.011 %ID/g | tissue uptake at 4 h (in vivo [2]; Liver % ID/g): 0.363 ± 0.022 %ID/g | tissue uptake at 4 h (in vivo [2]; Liver (% ID/g at 4 hours p.i.)): 0.19 %ID/g | tissue uptake at 0.5 h (in vivo [2]; Pancreas % ID/g): 1.15 ± 0.032 %ID/g | tissue uptake at 4 h (in vivo [2]; Pancreas % ID/g): 0.956 ± 0.054 %ID/g | tissue uptake at 4 h (in vivo [2]; Pancreas (% ID/g at 4 hours p.i.)): 0.99 %ID/g | tissue uptake at 0.5 h (in vivo [2]; Tumor % ID/g): 0.793 ± 0.041 %ID/g | tissue uptake at 4 h (in vivo [2]; Tumor % ID/g): 0.769 ± 0.069 %ID/g | tissue uptake at 4 h (in vivo [2]; Tumor (% ID/g at 4 hours p.i.)): 1.06 %ID/g | tissue to tissue ratio at 0.5 h (in vivo [2]; Tumor/Blood): 1.7 | tissue to tissue ratio at 4 h (in vivo [2]; Tumor/Blood): 6.7 | tissue to tissue ratio at 0.5 h (in vivo [2]; Tumor/Kidney): 0.37 | tissue to tissue ratio at 4 h (in vivo [2]; Tumor/Kidney): 0.25 | tissue to tissue ratio at 0.5 h (in vivo [2]; Tumor/Liver): 1.6 | tissue to tissue ratio at 4 h (in vivo [2]; Tumor/Liver): 2.1
